Here are results for six molecules from patent US6682891B2, “Methods of identifying nucleic acid sequences encoding plant riboflavin synthase enzymes” (E. I. du Pont de Nemours and Company, priority 1997, dated 2004).

Series [1] deals with T1, B. subtilis LS (Bacillus subtilis, UniProt P11998).
T1 sequence (P11998 whole entry, looked up): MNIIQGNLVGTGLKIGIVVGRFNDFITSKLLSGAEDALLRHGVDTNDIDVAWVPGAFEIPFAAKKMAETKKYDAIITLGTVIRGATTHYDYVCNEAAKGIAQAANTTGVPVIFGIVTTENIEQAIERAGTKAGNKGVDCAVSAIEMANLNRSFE
The settings on record: 37° C.; cited from earlier work.

Series [2] deals with E. coli LS (Escherichia coli, UniProt P61714). The settings on record: 37° C.; cited from earlier work.
Series [3] concerns the target T2, B. subtilis RS (Bacillus subtilis, UniProt P16440).
T2 sequence (P16440 whole entry, looked up): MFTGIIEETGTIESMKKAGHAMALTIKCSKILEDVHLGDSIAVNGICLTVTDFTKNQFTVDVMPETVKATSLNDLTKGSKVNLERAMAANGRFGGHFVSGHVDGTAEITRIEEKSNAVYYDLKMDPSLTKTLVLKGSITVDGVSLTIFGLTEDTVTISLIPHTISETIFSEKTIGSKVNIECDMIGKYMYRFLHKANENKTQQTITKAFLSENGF
The settings on record: 37° C.; cited from earlier work.

Series [4] has as its system purified recombinant spinach RS. Kind of series: Riboflavin synthase assay (riboflavin formation from DMRL, 470 nm). It counts as biochemical, spinach (Spinacea oleracea). The settings on record: 25° C., based on protomer. As for the experimental part:
Riboflavin synthase assays were run using 1-mL reaction mixtures containing 0.1 mM DMRL in 50 mM Tris-Cl (pH 7.5) at 25° C. Reactions were initiated by the addition of purified recombinant spinach RS and initial rates of the reactions were measured continuously at 470 nm. A molar extinction coefficient (ε) of 9500 at 470 nm was used to calculate the formation of riboflavin (Plaut, G. W. E. and Harvey, R. A., Methods in Enzymology (McCormick, D. B. and Wright L. D., eds.) vol. 18, part B, pp. 515-538, Academic Press, N.Y. (1971)).

For series [5], the target named is yeast LS (Saccharomyces cerevisiae, UniProt P50861). The settings on record: 37° C.; cited from earlier work.
In series [6] the target is T3, S. cerevisiae RS (Saccharomyces cerevisiae, UniProt P38145).
T3 sequence (P38145 1-238): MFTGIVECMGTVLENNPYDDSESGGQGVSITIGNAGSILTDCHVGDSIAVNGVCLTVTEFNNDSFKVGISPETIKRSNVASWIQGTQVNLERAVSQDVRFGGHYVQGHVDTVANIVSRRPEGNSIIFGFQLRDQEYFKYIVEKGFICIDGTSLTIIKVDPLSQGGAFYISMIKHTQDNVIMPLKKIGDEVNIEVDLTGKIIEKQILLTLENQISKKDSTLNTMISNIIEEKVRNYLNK
The settings on record: 37° C.; cited from earlier work.

B1: B. subtilis LS: purified B. subtilis lumazine synthase, literature comparison (protein, UniProt P11998 1-154, looked up)
6,7-dimethyl-8-ribityllumazine …: MNIIQGNLVGTGLKIGIVVGRFNDFITSKLLSGAEDALLRHGVDTNDIDVAWVPGAFEIPFAAKKMAETKKYDAIITLGTVIRGATTHYDYVCNEAAKGIAQAANTTGVPVIFGIVTTENIEQAIERAGTKAGNKGVDCAVSAIEMANLNRSFE
B1: the reported turnover number in series [1] was 0.06 s⁻¹.

B2: E. coli LS: purified E. coli lumazine synthase, literature comparison (protein, UniProt P61714 1-156, looked up)
6,7-dimethyl-8-ribityllumazine …: MNIIEANVATPDARVAITIARFNNFINDSLLEGAIDALKRIGQVKDENITVVWVPGAYELPLAAGALAKTGKYDAVIALGTVIRGGTAHFEYVAGGASNGLAHVAQDSEIPVAFGVLTTESIEQAIERAGTKAGNKGAEAALTALEMINVLKAIKA
Turning to B2, the reported turnover number in series [2] was 0.06 s⁻¹.

B3: B. subtilis RS: B. subtilis riboflavin synthase, literature comparison (Bacher et al.) (protein, UniProt P16440 1-215, looked up)
Riboflavin synthase: MFTGIIEETGTIESMKKAGHAMALTIKCSKILEDVHLGDSIAVNGICLTVTDFTKNQFTVDVMPETVKATSLNDLTKGSKVNLERAMAANGRFGGHFVSGHVDGTAEITRIEEKSNAVYYDLKMDPSLTKTLVLKGSITVDGVSLTIFGLTEDTVTISLIPHTISETIFSEKTIGSKVNIECDMIGKYMYRFLHKANENKTQQTITKAFLSENGF
As to B3, the reported turnover number in series [3] was 0.33 s⁻¹.

B4: recombinant spinach RS: purified recombinant mature spinach riboflavin synthase expressed in E. coli, without transit peptide (SEQ ID NO:8) (protein)
chain: MFTGIVEEIGRVKQMGYGEDGGFQLKVVGDIVLKDVNLGDSIAVNGTCLTVTEFDTKASEFTLGIAPETLRKTALMDLEPGSVVNLERALLPSTRMGGHFVQGHVDGTGEIVSLVEEGDSLWVKIKTSPEILRYIVPKGFIAIDGTSLTVVDVFDQELCFNIMLVAYTQQNVVIPLKKVGQKVNLEVDILGKYVERLLSSSGVLDPTKFT
For the molecule B4, the turnover number entry in series [4] is “approximately 0.08 /sec”.

B5: yeast LS: purified yeast lumazine synthase, literature comparison (protein, UniProt P50861 1-169, looked up)
6,7-dimethyl-8-ribityllumazine …: MAVKGLGKPDQVYDGSKIRVGIIHARWNRVIIDALVKGAIERMASLGVEENNIIIETVPGSYELPWGTKRFVDRQAKLGKPLDVVIPIGVLIKGSTMHFEYISDSTTHALMNLQEKVDMPVIFGLLTCMTEEQALARAGIDEAHSMHNHGEDWGAAAVEMAVKFGKNAF
Take B5: the reported turnover number in series [5] was 0.06 s⁻¹.

B6: S. cerevisiae RS: yeast riboflavin synthase, literature comparison (Santos et al.) (protein, UniProt P38145 1-238, looked up)
Riboflavin synthase: MFTGIVECMGTVLENNPYDDSESGGQGVSITIGNAGSILTDCHVGDSIAVNGVCLTVTEFNNDSFKVGISPETIKRSNVASWIQGTQVNLERAVSQDVRFGGHYVQGHVDTVANIVSRRPEGNSIIFGFQLRDQEYFKYIVEKGFICIDGTSLTIIKVDPLSQGGAFYISMIKHTQDNVIMPLKKIGDEVNIEVDLTGKIIEKQILLTLENQISKKDSTLNTMISNIIEEKVRNYLNK
On to B6, for which the reported turnover number in series [6] was 0.13 s⁻¹.
